The values below are quoted from earlier work in paper PMC8894380.

As a reminder, the pKd is the negative decadic logarithm of the Kd, by convention in mol/L.

pKd: −log10 of the molar value.

For this data set, the target named is PRPF8 Jab1 (Saccharomyces cerevisiae) (UniProt P33334).
Chain of PRPF8 Jab1 (Saccharomyces cerevisiae) (P33334 2148-2395): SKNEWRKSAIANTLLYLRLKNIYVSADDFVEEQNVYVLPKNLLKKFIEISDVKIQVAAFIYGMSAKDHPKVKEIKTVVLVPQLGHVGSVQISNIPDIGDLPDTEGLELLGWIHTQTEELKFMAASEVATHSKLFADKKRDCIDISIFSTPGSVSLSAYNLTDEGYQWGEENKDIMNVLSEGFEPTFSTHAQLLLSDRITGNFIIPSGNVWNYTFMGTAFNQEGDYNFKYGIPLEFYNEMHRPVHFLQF

Chain of BRR2 helicase region (P32639 442-2163): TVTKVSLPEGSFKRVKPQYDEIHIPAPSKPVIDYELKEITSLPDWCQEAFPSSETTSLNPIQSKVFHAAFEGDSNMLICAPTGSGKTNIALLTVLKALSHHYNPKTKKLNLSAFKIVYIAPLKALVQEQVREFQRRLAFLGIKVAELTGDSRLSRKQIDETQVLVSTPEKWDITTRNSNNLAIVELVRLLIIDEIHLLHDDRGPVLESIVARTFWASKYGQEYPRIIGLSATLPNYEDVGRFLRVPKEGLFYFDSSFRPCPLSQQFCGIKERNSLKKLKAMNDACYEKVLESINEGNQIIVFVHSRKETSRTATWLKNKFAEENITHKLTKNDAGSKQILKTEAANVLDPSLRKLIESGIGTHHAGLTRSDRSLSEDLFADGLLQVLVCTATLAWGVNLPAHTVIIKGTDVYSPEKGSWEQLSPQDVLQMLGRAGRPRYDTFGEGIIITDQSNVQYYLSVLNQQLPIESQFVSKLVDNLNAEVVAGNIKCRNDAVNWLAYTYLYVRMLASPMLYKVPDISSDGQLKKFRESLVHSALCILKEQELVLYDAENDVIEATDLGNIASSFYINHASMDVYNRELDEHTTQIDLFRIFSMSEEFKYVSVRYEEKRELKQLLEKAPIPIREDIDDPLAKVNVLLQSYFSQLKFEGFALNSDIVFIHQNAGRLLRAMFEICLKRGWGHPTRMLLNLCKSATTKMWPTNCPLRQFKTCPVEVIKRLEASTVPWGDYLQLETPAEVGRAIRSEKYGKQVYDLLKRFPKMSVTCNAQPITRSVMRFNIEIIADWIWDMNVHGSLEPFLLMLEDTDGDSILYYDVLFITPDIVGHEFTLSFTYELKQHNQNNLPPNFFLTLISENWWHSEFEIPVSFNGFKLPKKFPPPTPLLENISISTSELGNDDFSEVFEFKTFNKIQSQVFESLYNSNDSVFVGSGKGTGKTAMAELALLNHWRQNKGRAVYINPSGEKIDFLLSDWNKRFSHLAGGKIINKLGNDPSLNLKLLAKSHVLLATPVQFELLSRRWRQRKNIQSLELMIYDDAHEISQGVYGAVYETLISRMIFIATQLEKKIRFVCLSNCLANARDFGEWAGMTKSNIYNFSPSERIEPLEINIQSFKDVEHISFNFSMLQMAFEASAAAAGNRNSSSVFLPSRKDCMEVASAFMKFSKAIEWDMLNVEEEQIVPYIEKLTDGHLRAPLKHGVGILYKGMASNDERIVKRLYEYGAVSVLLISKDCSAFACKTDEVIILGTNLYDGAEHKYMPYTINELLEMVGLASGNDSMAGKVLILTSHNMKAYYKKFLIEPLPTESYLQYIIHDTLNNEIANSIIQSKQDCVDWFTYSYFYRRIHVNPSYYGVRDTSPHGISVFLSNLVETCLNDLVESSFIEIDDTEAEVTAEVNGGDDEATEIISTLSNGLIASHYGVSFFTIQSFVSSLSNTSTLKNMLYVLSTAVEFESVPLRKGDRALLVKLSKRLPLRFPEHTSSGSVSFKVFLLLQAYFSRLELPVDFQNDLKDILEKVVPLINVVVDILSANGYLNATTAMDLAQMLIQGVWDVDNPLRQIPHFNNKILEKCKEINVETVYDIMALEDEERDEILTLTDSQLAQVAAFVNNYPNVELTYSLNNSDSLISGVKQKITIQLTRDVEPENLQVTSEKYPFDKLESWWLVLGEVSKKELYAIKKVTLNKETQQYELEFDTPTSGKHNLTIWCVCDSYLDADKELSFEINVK

On to “BRR2 helicase region (from UniProt P32639)”, for which the pKd was 8.10.
